Molecular target: B cell antigen receptor (BCR; surface IgM) on DT40-ASF cells (chicken)
Assay: cell-based or functional assay

For “antibody M4 (mouse-derived anti-chicken IgM monoclonal antibody)”, which recovery of cell proliferation of doxycycline-treated DT40-ASF cells is on record?
Its recovery of cell proliferation of doxycycline-treated DT40-ASF cells is > 1 µg/mL.

— patent US20080227123A1
